Biological target: transcription elongation complex
Assay: single-molecule fluorescence co-localization

B1: GreB (natural protein)
chain: MKTPLVTREGYEKLKQELNYLWREERPEVTKKVTWAASLGDRSENADYQYNKKRLREIDRRVRYLTKCLENLKIVDYSPQQEGKVFFGAWVEIENDDGVTHRFRIVGYDEIFGRKDYISIDSPMARALLKKEVGDLAVVNTPAGEASWYVNAIEYVKP
modifications: fluorescent dye label: Cy3 (Figure 5) or Cy3B (Figure 6); position not stated
  ka (apparent first-order association rate constant at 0.5 nM GreB): 0.0149 s⁻¹

— PMC4577447
